In test [1] the target is T1, Cynomolgus/Rhesus macaque OX40/TNFRSF4/CD134 Protein, His Tag (Cynomolgus/Rhesus macaque).
T1 construct: Bought recombinant protein; also called fasOX40-His; monkey OX40
Briefly: SPR Biacore 8K, Protein A chip; antibody captured, antigen analyte. For orientation: In SPR one partner is held on a chip, and binding of the other changes the refractive index at the surface.

Test [2] addresses T2, Human OX40 protein having a His-Tag (human, UniProt P43489 29-216, limits assumed).
T2 construct: Bought recombinant protein; also called hOX40-His; hOX40; not shown: His tag
T2 sequence (looked up): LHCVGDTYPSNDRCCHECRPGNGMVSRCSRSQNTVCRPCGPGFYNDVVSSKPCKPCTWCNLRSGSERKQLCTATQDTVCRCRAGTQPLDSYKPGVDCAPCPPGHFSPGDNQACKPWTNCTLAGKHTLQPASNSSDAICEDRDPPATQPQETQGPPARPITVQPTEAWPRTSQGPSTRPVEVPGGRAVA
The description is as above.

Test [3] addresses T3, human OX40 expressed on transfected cells (human, UniProt P43489 29-277).
T3 construct: whole, on cells; also called hOX40 on HEK293T-hCTLA4-hOX40 cells; on Jurkat-luc-hOX40
T3 sequence (looked up): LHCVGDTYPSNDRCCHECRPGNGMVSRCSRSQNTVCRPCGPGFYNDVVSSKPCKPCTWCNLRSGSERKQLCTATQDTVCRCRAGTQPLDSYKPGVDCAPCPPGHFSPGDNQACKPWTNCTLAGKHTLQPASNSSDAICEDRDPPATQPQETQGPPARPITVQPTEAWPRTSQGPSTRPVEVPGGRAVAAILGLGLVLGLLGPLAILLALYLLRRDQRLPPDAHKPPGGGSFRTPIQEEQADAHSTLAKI
As to the kind of experiment: flow cytometry (MFI, anti-hIgG-Fc-Alexa Fluor 647) on HEK293T-hCTLA4-hOX40 cells co-expressing human CTLA4 and human OX40; the bispecific can bind both antigens on the same cell, signal not separable by target.

Test [4] concerns the target T4, human CTLA4 expressed on transfected cells (human, UniProt P16410 36-223).
T4 construct: whole, on cells; also called hCTLA4 on HEK293T-hCTLA4-hOX40 cells; on Jurkat-luc-hCTLA4
T4 sequence (looked up): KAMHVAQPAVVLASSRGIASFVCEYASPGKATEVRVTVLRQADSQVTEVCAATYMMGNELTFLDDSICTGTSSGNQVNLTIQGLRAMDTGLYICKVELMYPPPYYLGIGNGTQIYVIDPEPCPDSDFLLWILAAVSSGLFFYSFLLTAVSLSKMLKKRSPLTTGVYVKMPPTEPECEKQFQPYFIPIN
The test is described as above.

The target in test [5] is T3, human OX40 expressed on transfected …. Described as above. The source holds these as a separate data set.
For test [6], the target named is T4, human CTLA4 expressed on transfected …. The description is as above. The source holds these as a separate data set.
The target in test [7] is T5, Human CTLA4 protein having a His-Tag (human, UniProt P16410 37-162, limits assumed).
T5 construct: Bought recombinant protein; also called hCTLA4-His; hCTLA4; not shown: His tag
T5 sequence (looked up): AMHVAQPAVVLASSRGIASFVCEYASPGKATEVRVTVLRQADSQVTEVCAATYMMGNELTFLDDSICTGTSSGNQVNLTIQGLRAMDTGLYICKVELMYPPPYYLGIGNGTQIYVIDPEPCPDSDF
Briefly: SPR Biacore 8K, Protein A chip; antibody captured, antigen analyte.

Test [8] concerns the target T4, human CTLA4 expressed on transfected …. Briefly: flow cytometry (MFI, anti-hIgG-Fc-Alexa Fluor 647) on HEK293T-hCTLA4-hOX40 cells co-expressing human CTLA4 and human OX40.
Test [9] has the same target. The description is as above. This is another data set of the same source.
Test [10] shares this target. The description is as above. The source holds these as a separate data set.
Test [11] deals with T3, human OX40 expressed on transfected …. As to the kind of experiment: flow cytometry (MFI, anti-hIgG-Fc-Alexa Fluor 647) on HEK293T-hCTLA4-hOX40 cells co-expressing human CTLA4 and human OX40; the bispecific can bind both antigens on the same cell, signal not separable by target. The source holds these as a separate data set. (In general: A flow cytometer gives signals particle by particle.)

Test [12] concerns the target T4, human CTLA4 expressed on transfected …. Described as above. The source holds these as a separate data set.
In test [13] the target is T2, Human OX40 protein having a His-Tag. As to the kind of experiment: SPR Biacore 8K, Protein A chip; antibody captured, antigen analyte. This is another data set of the same source.
Test [14] concerns the target T3, human OX40 expressed on transfected …. As to the kind of experiment: flow cytometry (MFI, anti-hIgG-Fc-Alexa Fluor 647) on HEK293T-hCTLA4-hOX40 cells co-expressing human CTLA4 and human OX40.
For test [15] the target is unchanged. The test is described as above. This is another data set of the same source.

Like-named read-outs stand apart in the source and are kept apart here.

As a reminder, the Kd is the free concentration of one partner at which half of the binding sites on the other are occupied at equilibrium, for simple one-to-one binding. Read a low Kd as a tighter complex. By koff is commonly meant the first-order rate constant of dissociation. As a reminder, the kon is the second-order rate constant of association. Usually EC50 (read off the curve) stands for the midpoint of the concentration-response curve.

B1: OX-H7-CT-3D2-IgG1-SI (bispecific antibody, V domains shown)
VH 1: QITLKESGPTLVKPAQTLTLTCTFSGFSLSTSGVGVGWIRQPPGKALEWLALIYWDDDKLYSPSLKSRLTITKDTSKNQVVLAMTNMDPVDTATYYCAHSQLGRDDYWGQGTLVTVSS
VH 2: QVQLVESGPGLVKPSETLSLTCTVSGDSIRSSHYYWGWIRQPPGKGLEWIGSIYFNGITYYSPSLKSRVTISVDTSKNQFSLKLTSVTAADTAVFYCARHNNYYDSSGYWYYFDYWGQGTLVTVSS
VL: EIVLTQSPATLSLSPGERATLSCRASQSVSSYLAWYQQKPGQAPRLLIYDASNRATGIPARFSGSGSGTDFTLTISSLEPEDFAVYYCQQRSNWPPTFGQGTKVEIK
notes: SI mutations (S239D, I332E, EU)
For the molecule B1, the figures for the Kd in test [1] and in test [2] were 163 nM and 182 nM, respectively. Also, the off-rate constant (koff) in test [1] amounted to 0.001 s⁻¹; in test [2] it was 0.00169 s⁻¹. In addition, the kon in [1] is 6170 M⁻¹ s⁻¹; in [2], 9260 M⁻¹ s⁻¹. Also, the 50% effective concentration (EC50 (read off the curve)) in test [3] and in [4] was about 1 µg/mL in each case.

B2: OX-4C8-CT-3D2-IgG1-SI (bispecific antibody, V domains shown)
VH 1: QVQLVESGPTLVKPTQTLTLTCTFSGFSLSTTRVGVGWIRQPPGKALEWLALIYWDDDKRYSPSLKNRLTLTKDTSKNQVVLTMTNMDPVDTATYYCAHFGSGTYYNVDYWGQGTLVTVSSAS
VH 2: QVQLVESGPGLVKPSETLSLTCTVSGDSIRSSHYYWGWIRQPPGKGLEWIGSIYFNGITYYSPSLKSRVTISVDTSKNQFSLKLTSVTAADTAVFYCARHNNYYDSSGYWYYFDYWGQGTLVTVSS
VL: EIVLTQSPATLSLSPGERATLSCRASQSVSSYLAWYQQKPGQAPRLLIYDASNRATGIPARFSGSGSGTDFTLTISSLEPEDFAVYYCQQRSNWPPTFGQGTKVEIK
notes: 1+1 knobs-into-holes human IgG1 with common light chain; SI mutations (S239D, I332E, EU)
As for B2, the “EC50 (read off the curve)” value in test [5] and in test [6] was about 2 µg/mL in each case. Also, the Kd in test [1] stood at 6.4 nM; in [2], 17.6 nM. Moreover, the koff worked out at 0.0037 s⁻¹ in test [1] and 0.00258 s⁻¹ in test [2]. The values for the kon in test [1] and in [2] were 578000 M⁻¹ s⁻¹ and 147000 M⁻¹ s⁻¹, respectively.

B3: CT-3D2-IgG1 (antibody, V domains shown)
VH: QVQLVESGPGLVKPSETLSLTCTVSGDSIRSSHYYWGWIRQPPGKGLEWIGSIYFNGITYYSPSLKSRVTISVDTSKNQFSLKLTSVTAADTAVFYCARHNNYYDSSGYWYYFDYWGQGTLVTVSS
VL: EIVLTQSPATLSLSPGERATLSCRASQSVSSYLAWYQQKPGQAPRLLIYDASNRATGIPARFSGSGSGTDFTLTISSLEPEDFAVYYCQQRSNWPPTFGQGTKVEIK
notes: Human anti-CTLA4 antibody from RenLite mice
In test [7], B3 displayed a Kd of 17.1 nM, a koff of 0.00079 s⁻¹ and a kon of 46200 M⁻¹ s⁻¹. For the same molecule, the “EC50 (read off the curve)” value in [8] was about 2 µg/mL. For the same molecule, the “EC50 (read off the curve)” value in [9] was about 2 µg/mL. For the same molecule, in [10], the 50% effective concentration (EC50 (read off the curve)) was about 2 µg/mL.

B4: OX-H8-CT-3D2-IgG1-SI (bispecific antibody, V domains shown)
VH 1: QITLKESGPTLVKPTQTLTLTCTFSGFSLSSRGVGVGWIRQPPGKALEWLALIYWDDDKRYSPSLKSRLTITKDTSKNQVVLTMANMDPVDTATYYCAHSHRGYENFWGQGTLVTVSS
VH 2: QVQLVESGPGLVKPSETLSLTCTVSGDSIRSSHYYWGWIRQPPGKGLEWIGSIYFNGITYYSPSLKSRVTISVDTSKNQFSLKLTSVTAADTAVFYCARHNNYYDSSGYWYYFDYWGQGTLVTVSS
VL: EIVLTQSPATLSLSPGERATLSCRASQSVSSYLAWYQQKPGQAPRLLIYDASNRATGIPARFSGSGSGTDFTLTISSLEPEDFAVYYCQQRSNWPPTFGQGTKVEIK
notes: as for B1
B4: the Kd was 18.9 nM in [1] and 16 nM in [2]. Besides, the koff in [1] is 0.00966 s⁻¹; in test [2], 0.00784 s⁻¹. For the same molecule, the kon in test [1] turned out to be 510000 M⁻¹ s⁻¹; in test [2] it was 490000 M⁻¹ s⁻¹. For the same molecule, the “EC50 (read off the curve)” value in test [11] and in test [12] was about 1 µg/mL throughout.

B5: OX-4C8-IgG1 (antibody, V domains shown)
VH: QVQLVESGPTLVKPTQTLTLTCTFSGFSLSTTRVGVGWIRQPPGKALEWLALIYWDDDKRYSPSLKNRLTLTKDTSKNQVVLTMTNMDPVDTATYYCAHFGSGTYYNVDY
VL: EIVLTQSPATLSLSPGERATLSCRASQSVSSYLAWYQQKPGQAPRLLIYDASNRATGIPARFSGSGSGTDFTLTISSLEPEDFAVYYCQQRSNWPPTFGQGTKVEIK
notes: Human anti-OX40 antibody; IgG1 constant regions
In [13], B5 had a Kd of 65.4 nM, a koff of 0.00738 s⁻¹ and an association rate constant (kon) of 113000 M⁻¹ s⁻¹. Besides, in test [14], the “EC50 (read off the curve)” value was about 0.3 µg/mL.

B6: OX-H8-IgG1 (antibody, V domains shown)
VH: QITLKESGPTLVKPTQTLTLTCTFSGFSLSSRGVGVGWIRQPPGKALEWLALIYWDDDKRYSPSLKSRLTITKDTSKNQVVLTMANMDPVDTATYYCAHSHRGYENFWGQGTLVTVSS
VL: EIVLTQSPATLSLSPGERATLSCRASQSINSYLAWYQQNPGQAPRLLIYLASNRATGIPARFSGSGSGTDFTLTITSLEPEDFAVYYCQQRSDWPPTFGQGTKVEIK
notes: Monoclonal anti-OX40 antibody, IgG1 constant regions
As for B6, in test [13], the Kd was 8.68 nM, the koff turned out to be 0.00441 s⁻¹ and the kon is 508000 M⁻¹ s⁻¹. Moreover, the 50% effective concentration (EC50 (read off the curve)) in test [15] was about 7 µg/mL.

The values are drawn from patent US20250115668A1 (BIOCYTOGEN PHARMACEUTICALS BEIJING, published 2025).
